Results reported in patent publication US20260184768A1.

Columns and labels:
[1] = target: full-length PcrV.6xhis (Pseudomonas aeruginosa); test: SPR (Biacore T200), mAb captured via anti-human Fc, PcrV injected, 37 C
[2] = target: full-length PcrV.6xhis (Pseudomonas aeruginosa); test: SPR (Biacore T200), mAb captured via anti-human Fc, PcrV injected, 25 C

REGN1932 (antibody)
90 nM Ag Bound (RU) [1]: -22.5 RU
90 nM Ag Bound (RU) [2]: -5.9 RU
